From article PMC8548206, “Single-domain antibody screening by isPLA-seq” (Life Science Alliance, 2021)

B1: anti-SQSTM1 sdAb #17 (Flag-tagged, sdAb library) (VHH)
VHH: QVQLVESGGGSVQAGGSLRLSCTASGGSEYSYSTFSLGWFRQAPGQEREAVAAIASMGGLTYYADSVKGRFTISRDNAKNTVTLQMNNLKPEDTAIYYCAAAVESCDGFRTGRTVPYREVTYWGQGTQVTVSS
notes: 21-aa CDR3 in place of the CDR3 of cAbBCII10; source: HEK293T, transfected (sdAb library in pcDNA3.1), in fixed cells; not shown: 3x Flag, C-terminal, kept
B2: anti-SQSTM1 sdAb #2 (Flag-tagged, sdAb library) (VHH)
VHH: QVQLVESGGGSVQAGGSLRLSCTASGGSEYSYSTFSLGWFRQAPGQEREAVAAIASMGGLTYYADSVKGRFTISRDNAKNTVTLQMNNLKPEDTAIYYCAARAGVCGVVGSFSMYTIGNWVYWGQGTQVTVSS
notes: 21-aa CDR3 in place of the CDR3 of cAbBCII10; also called clone #2; source: HEK293T, transfected (sdAb library in pcDNA3.1), in fixed cells; not shown: 3x Flag, C-terminal, kept
B3: anti-SQSTM1 sdAb #19 (Flag-tagged, sdAb library) (VHH)
VHH: QVQLVESGGGSVQAGGSLRLSCTASGGSEYSYSTFSLGWFRQAPGQEREAVAAIASMGGLTYYADSVKGRFTISRDNAKNTVTLQMNNLKPEDTAIYYCAARQAPFGSRCSISSSPKGRYPSWGQGTQVTVSS
notes: as for B1
B4: anti-SQSTM1 sdAb #18 (Flag-tagged, sdAb library) (VHH)
VHH: QVQLVESGGGSVQAGGSLRLSCTASGGSEYSYSTFSLGWFRQAPGQEREAVAAIASMGGLTYYADSVKGRFTISRDNAKNTVTLQMNNLKPEDTAIYYCAAGIGYAGDCRAHTIATRRFSVGWGQGTQVTVSS
notes: as for B1
B5: anti-SQSTM1 sdAb #16 (Flag-tagged, sdAb library) (VHH)
VHH: QVQLVESGGGSVQAGGSLRLSCTASGGSEYSYSTFSLGWFRQAPGQEREAVAAIASMGGLTYYADSVKGRFTISRDNAKNTVTLQMNNLKPEDTAIYYCAANMAIRVRWVAMFTCGPIGGVGWGQGTQVTVSS
notes: as for B1
B6: anti-SQSTM1 sdAb #15 (Flag-tagged, sdAb library) (VHH)
VHH: QVQLVESGGGSVQAGGSLRLSCTASGGSEYSYSTFSLGWFRQAPGQEREAVAAIASMGGLTYYADSVKGRFTISRDNAKNTVTLQMNNLKPEDTAIYYCAALRWSWFPSGSTANLSLGIGCTWGQGTQVTVSS
notes: as for B1
B7: anti-SQSTM1 sdAb #12 (Flag-tagged, sdAb library) (VHH)
VHH: QVQLVESGGGSVQAGGSLRLSCTASGGSEYSYSTFSLGWFRQAPGQEREAVAAIASMGGLTYYADSVKGRFTISRDNAKNTVTLQMNNLKPEDTAIYYCAADQVRDHSWCNLFRTLRVCVLIWGQGTQVTVSS
notes: as for B1
B8: anti-SQSTM1 sdAb #14 (Flag-tagged, sdAb library) (VHH)
VHH: QVQLVESGGGSVQAGGSLRLSCTASGGSEYSYSTFSLGWFRQAPGQEREAVAAIASMGGLTYYADSVKGRFTISRDNAKNTVTLQMNNLKPEDTAIYYCAAGGNTVKVSNIFEVSSSVRVRLWGQGTQVTVSS
notes: as for B1
B9: anti-SQSTM1 sdAb #13 (Flag-tagged, sdAb library) (VHH)
VHH: QVQLVESGGGSVQAGGSLRLSCTASGGSEYSYSTFSLGWFRQAPGQEREAVAAIASMGGLTYYADSVKGRFTISRDNAKNTVTLQMNNLKPEDTAIYYCAAREPFARYLRKESYPLFRMYSFWGQGTQVTVSS
notes: as for B1
B10: anti-SQSTM1 sdAb #10 (Flag-tagged, sdAb library) (VHH)
VHH: QVQLVESGGGSVQAGGSLRLSCTASGGSEYSYSTFSLGWFRQAPGQEREAVAAIASMGGLTYYADSVKGRFTISRDNAKNTVTLQMNNLKPEDTAIYYCAAVLHVLSWDRCEYDPAHDLRTAWGQGTQVTVSS
notes: as for B1
B11: anti-SQSTM1 sdAb #11 (Flag-tagged, sdAb library) (VHH)
VHH: QVQLVESGGGSVQAGGSLRLSCTASGGSEYSYSTFSLGWFRQAPGQEREAVAAIASMGGLTYYADSVKGRFTISRDNAKNTVTLQMNNLKPEDTAIYYCAAARAHFASLCDCQGNRITLLCDWGQGTQVTVSS
notes: as for B1
B12: anti-SQSTM1 sdAb #20 (Flag-tagged, sdAb library) (VHH)
VHH: QVQLVESGGGSVQAGGSLRLSCTASGGSEYSYSTFSLGWFRQAPGQEREAVAAIASMGGLTYYADSVKGRFTISRDNAKNTVTLQMNNLKPEDTAIYYCAAPGHGRPWRAATFPVDEGGGSAWGQGTQVTVSS
notes: as for B1

Each binder was assayed against T1, HA-tagged SQSTM1 (Homo sapiens (Human)., UniProt Q13501) (assay: proximity ligation; pooled screen (isPLA-seq): Flag-tagged sdAb library co-transfected with HA-tagged SQSTM1 into HEK293T cells, fixed after 48 h, isPLA with anti-HA and anti-Flag antibodies, positive cells sorted by FACS, three rounds, CDR3 sequenced). Settings: partners not purified.
T1 construct: autophagy receptor SQSTM1, full length; the printed limits 1-440 fit the human protein; also called HA-tagged bait; full length; source: HEK293T, transfected, in fixed cells (screen)

| binding result | Binder |
| --- | --- |
| binds | B1 |
| binds | B2 |
| binds | B3 |
| binds | B4 |
| binds | B5 |
| binds | B6 |
| binds | B7 |
| binds | B8 |
| binds | B9 |
| binds | B10 |
| binds | B11 |
| binds | B12 |
